Assay results from PMC5859130.

How the values were obtained:
[1] = biological target: Ixonnexin (Ixodes scapularis) (UniProt Q4PMS3); assay: SPR; Ixonnexin amine-coupled to a carboxymethylated dextran (CM5) chip, 726.2 RU; analytes injected 120 s at 30 µL/min, 25 °C, dissociation 600 s; global fit with the two-state (conformational change) model, Langmuir 1:1 for plasmin

| Substance | Kd [1] | ka1 (two-state, first step) [1] | ka2 (two-state, conformational change) [1] | kd1 (two-state, first step) [1] | kd2 (two-state, conformational change) [1] | Km of plasmin generation (S2251) started with t-PA, with immobilized Ixonnexin (0.5 μg/ml) and increasing Glu-plasminogen (Single-chain t-PA) | koff [1] | kon [1] |
| --- | --- | --- | --- | --- | --- | --- | --- | --- |
| Single-chain t-PA (enzyme) | 0.00467 µM | 413000 M⁻¹ s⁻¹ | 0.0097 s⁻¹ | 0.031 s⁻¹ | 0.0015 s⁻¹ |  |  |  |
| Glu-plasminogen (natural protein) | 0.0195 µM | 123000 M⁻¹ s⁻¹ | 0.022 s⁻¹ | 0.057 s⁻¹ | 0.00099 s⁻¹ | 0.208 µM |  |  |
| Plasmin (enzyme) | 0.197 µM |  |  |  |  |  | 0.29 s⁻¹ | 1.48e+06 M⁻¹ s⁻¹ |
| Two-chain t-PA (enzyme) | 0.0103 µM | 1.2e+06 M⁻¹ s⁻¹ | 0.011 s⁻¹ | 0.43 s⁻¹ | 0.0018 s⁻¹ |  |  |  |
